Assay results published in patent publication US20210292396A1.

Key:
Assay in all cases: cell-based or functional assay
[1] = biological target: Env of HIV isolate X1193.c1 (clade G) (HIV)
[2] = biological target: Env of HIV isolate 231965.c01 (clade D) (HIV)
[3] = biological target: Env of HIV isolate BJOX002000.03.2 (clade BC) (HIV)
[4] = biological target: Env of HIV isolate CE703010217.B6 (clade C) (HIV)
[5] = biological target: Env of HIV isolate ADA.DG (clade B) (HIV)
[6] = biological target: Env of HIV isolate CNE15 (clade BC) (HIV)
[7] = biological target: HIV Env of isolate ZM176.66 (HIV)
[8] = biological target: Env of HIV isolate 286.36 (clade C) (HIV)
[9] = biological target: Env of HIV isolate Q461.e2 (clade AD) (HIV)
[10] = biological target: HIV Env of isolate 286.36 (HIV)
[11] = biological target: HIV Env of isolate UG021.16 (HIV)
[12] = biological target: Env of HIV isolate X2131.C1.B5 (clade G) (HIV)
[13] = biological target: Env of HIV isolate 6101.10 (clade B) (HIV)
[14] = biological target: Env of HIV isolate 6535.3 (clade B) (HIV)
[15] = biological target: Env of HIV isolate 6540.v4.c1 (clade AC) (HIV)
[16] = biological target: Env of HIV isolate 246-F3.C10.2 (clade AC) (HIV)
[17] = biological target: HIV Env of isolate TZA125.17 (HIV)
[18] = biological target: HIV Env of isolate 25710-2.43 (HIV)
[19] = biological target: HIV Env of isolate ZM53.12 (HIV)
[20] = biological target: Env of HIV isolate R2184.c4 (clade AE) (HIV)
[21] = biological target: Env of HIV isolate BJOX028000.10.3 (clade AE) (HIV)
[22] = biological target: Env of HIV isolate REJO.67 (clade B) (HIV)
[23] = biological target: HIV Env of isolate 231965.c01 (HIV)
[24] = biological target: HIV Env of isolate DU123.06 (HIV)
[25] = biological target: Env of HIV isolate 001428-2.42 (clade C) (HIV)
[26] = biological target: Env of HIV isolate MW965.26 (clade C) (HIV)
[27] = biological target: Env of HIV isolate BR025.9 (clade C) (HIV)
[28] = biological target: Env of HIV isolate DU422.01 (clade C) (HIV)
[29] = biological target: HIV Env of isolate X2131.C1.B5 (HIV)
[30] = biological target: HIV Env of isolate 0921.v2.c14 (HIV)
[31] = biological target: Env of HIV isolate 3415.v1.c1 (clade A) (HIV)
[32] = biological target: Env of HIV isolate BS208.B1 (clade A) (HIV)
[33] = biological target: Env of HIV isolate CNE14 (clade B) (HIV)
[34] = biological target: Env of HIV isolate ZM135.10a (clade C) (HIV)
[35] = biological target: Env of HIV isolate R1166.C1 (clade AE) (HIV)
[36] = biological target: Env of HIV isolate 3168.v4.c10 (clade C) (HIV)
[37] = biological target: Env of HIV isolate 6471.v1.c16 (clade C) (HIV)
[38] = biological target: Env of HIV isolate ZM109.4 (clade C) (HIV)
[39] = biological target: Env of HIV isolate WITO.33 (clade B) (HIV)
[40] = biological target: HIV Env of isolate CNE15 (HIV)
[41] = biological target: HIV Env of isolate CNE53 (HIV)
[42] = biological target: Env of HIV isolate ZM215.8 (clade C) (HIV)
[43] = biological target: Env of HIV isolate HXB2.DG (clade B) (HIV)
[44] = biological target: Env of HIV isolate T280-5 (clade AG) (HIV)
[45] = biological target: Env of HIV isolate AC10.29 (clade B) (HIV)
[46] = biological target: Env of HIV isolate ZA012.29 (clade C) (HIV)
[47] = biological target: HIV Env of isolate 25925-2.22 (HIV)
[48] = biological target: HIV Env of isolate 6405.v4.c34 (HIV)
[49] = biological target: Env of HIV isolate 0439.v5.c1 (clade A) (HIV)
[50] = biological target: Env of SIVmac251.30.SG3

B1: ePGT121.15 (ePGT121.15.H6 VH and ePGT121.15.L1 VL) (antibody, V domains shown)
VH: QMQLQESGPGLVKPGETLSLTCSVSGASISSSYWSWLRETPGKGLEWIGYTHHSGDTNYAPSLKSRVHLGLHPSKNQVSLSLTSVTAADTAVYYCARTLHGRRIYGVVAFNEFFTYFYWEVWGKGTQVTVSS
VL: SDISVAPGETVRISCGGESIGSRAVQWYQHRAGQAPKLIIYNNQDRPPGIPERFSGSPDIDFGTTATLTITNVEAGDEATYYCHIWDSRRPTNWVFGGGTTLTVL
[1]
  IC50, pseudovirus neutralization: 0.003 µg/mL
[2]
  IC50, pseudovirus neutralization: 12.5 µg/mL
[3]
  IC50, pseudovirus neutralization: 0.003 µg/mL
[4]
  IC50, pseudovirus neutralization: 0.004 µg/mL
[5]
  IC50, pseudovirus neutralization: 0.005 µg/mL
[6]
  IC50, pseudovirus neutralization: 3.52 µg/mL
[7]
  IC80, pseudovirus neutralization: 0.31 µg/mL
[8]
  IC50, pseudovirus neutralization: 0.002 µg/mL
[9]
  IC50, pseudovirus neutralization: > 50 µg/mL
[10]
  IC80, pseudovirus neutralization: 0.006 µg/mL
[11]
  IC80, pseudovirus neutralization: 0.022 µg/mL
[12]
  IC50, pseudovirus neutralization: 0.002 µg/mL
[13]
  IC50, pseudovirus neutralization: 0.002 µg/mL
[14]
  IC50, pseudovirus neutralization: 0.0007 µg/mL
[15]
  IC50, pseudovirus neutralization: > 50 µg/mL
[16]
  IC50, pseudovirus neutralization: 11.6 µg/mL
[17]
  IC80, pseudovirus neutralization: 0.403 µg/mL
[18]
  IC80, pseudovirus neutralization: 0.021 µg/mL
[19]
  IC80, pseudovirus neutralization: 0.062 µg/mL
[20]
  IC50, pseudovirus neutralization: > 50 µg/mL
[21]
  IC50, pseudovirus neutralization: 0.363 µg/mL
[22]
  IC50, pseudovirus neutralization: 1.46 µg/mL
[23]
  IC80, pseudovirus neutralization: > 50 µg/mL
[24]
  IC80, pseudovirus neutralization: 0.008 µg/mL
[25]
  IC50, pseudovirus neutralization: 0.002 µg/mL
[26]
  IC50, pseudovirus neutralization: 0.004 µg/mL
[27]
  IC50, pseudovirus neutralization: 0.002 µg/mL
[28]
  IC50, pseudovirus neutralization: 0.01 µg/mL
[29]
  IC80, pseudovirus neutralization: 0.004 µg/mL
[30]
  IC80, pseudovirus neutralization: 5.71 µg/mL
[31]
  IC50, pseudovirus neutralization: 0.017 µg/mL
[32]
  IC50, pseudovirus neutralization: > 50 µg/mL
[33]
  IC50, pseudovirus neutralization: 0.002 µg/mL
[34]
  IC50, pseudovirus neutralization: 0.119 µg/mL
[35]
  IC50, pseudovirus neutralization: > 50 µg/mL
[36]
  IC50, pseudovirus neutralization: 0.026 µg/mL
[37]
  IC50, pseudovirus neutralization: 1.04 µg/mL
[38]
  IC50, pseudovirus neutralization: 3.37 µg/mL
[39]
  IC50, pseudovirus neutralization: 0.008 µg/mL
[40]
  IC80, pseudovirus neutralization: > 50 µg/mL
[41]
  IC80, pseudovirus neutralization: 0.015 µg/mL
[42]
  IC50, pseudovirus neutralization: 0.017 µg/mL
[43]
  IC50, pseudovirus neutralization: 0.011 µg/mL
[44]
  IC50, pseudovirus neutralization: 0.004 µg/mL
[45]
  IC50, pseudovirus neutralization: 0.002 µg/mL
[46]
  IC50, pseudovirus neutralization: 0.004 µg/mL
[47]
  IC80, pseudovirus neutralization: 0.013 µg/mL
[48]
  IC80, pseudovirus neutralization: 0.009 µg/mL
[49]
  IC50, pseudovirus neutralization: 4.72 µg/mL
[50]
  IC80, pseudovirus neutralization: > 50 µg/mL
